Laboratory results as given in paper PMC2649033, “Comparison between the HCV IRES domain IV RNA structure and the Iron Responsive Element”.

Legend:
Conditions in all cases: protein: recombinant; label: 32P-CTP; hairpin
hIRP1 (GST fusion) [1] = target: T1, hIRP1 (GST fusion) (human, UniProt P21399 1-889); experiment: EMSA; 240 ng hIRP1; 10 mM HEPES pH 7.6, 2 mM MgCl2, 40 mM KCl, 5% glycerol, 1 mM DTT, 20 uL, room temperature 30 min, […] (7%/14%) […]
T1 sequence: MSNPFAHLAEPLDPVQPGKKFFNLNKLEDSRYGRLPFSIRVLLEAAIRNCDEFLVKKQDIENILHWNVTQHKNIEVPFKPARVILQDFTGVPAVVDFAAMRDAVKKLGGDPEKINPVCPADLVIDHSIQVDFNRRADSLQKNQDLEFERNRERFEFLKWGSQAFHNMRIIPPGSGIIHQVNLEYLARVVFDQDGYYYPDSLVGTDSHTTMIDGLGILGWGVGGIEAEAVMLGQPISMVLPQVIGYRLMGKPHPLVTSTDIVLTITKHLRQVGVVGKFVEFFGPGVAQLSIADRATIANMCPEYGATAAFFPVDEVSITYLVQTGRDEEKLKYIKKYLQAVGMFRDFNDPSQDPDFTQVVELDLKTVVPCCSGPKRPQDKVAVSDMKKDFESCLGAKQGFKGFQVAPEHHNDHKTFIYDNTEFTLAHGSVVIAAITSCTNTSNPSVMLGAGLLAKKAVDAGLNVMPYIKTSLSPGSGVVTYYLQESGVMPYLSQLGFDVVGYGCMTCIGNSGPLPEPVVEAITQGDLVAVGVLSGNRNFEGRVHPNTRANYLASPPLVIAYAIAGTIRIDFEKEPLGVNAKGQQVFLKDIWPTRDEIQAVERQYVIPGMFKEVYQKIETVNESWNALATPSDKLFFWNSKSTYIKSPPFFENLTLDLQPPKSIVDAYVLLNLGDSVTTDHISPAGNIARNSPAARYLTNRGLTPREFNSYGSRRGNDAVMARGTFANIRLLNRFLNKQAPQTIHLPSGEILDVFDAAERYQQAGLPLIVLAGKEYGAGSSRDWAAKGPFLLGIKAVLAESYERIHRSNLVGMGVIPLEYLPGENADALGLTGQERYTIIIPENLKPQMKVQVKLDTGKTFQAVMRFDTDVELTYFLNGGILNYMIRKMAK

hIRP1 (GST fusion) [2] = target: T1, hIRP1 (GST fusion); experiment: EMSA; 240 ng hIRP1; also bound at 100 ng; approx. equal to ET1+2+3; 10 mM HEPES pH 7.6, 2 mM MgCl2, 40 mM KCl, 5% glycerol, 1 mM DTT, 20 uL, room temperature 30 min, then heparin 0.63 ug/uL 10 min; native PAGE (7%/14%) in 0.5x TBE
hIRP1 (GST fusion) [3] = target: T1, hIRP1 (GST fusion); experiment: EMSA; 240 ng hIRP1; 10 mM HEPES pH 7.6, 2 mM MgCl2, 40 mM KCl, 5% glycerol, 1 mM DTT, 20 uL, room temperature 30 min, then heparin 0.63 ug/uL 10 min; native PAGE (7%/14%) in 0.5x TBE
hIRP1 (GST fusion) [4] = target: T1, hIRP1 (GST fusion); experiment: EMSA; 2 mM Mg2+; 5.2 nM RNA; data not shown; 10 mM HEPES pH 7.6, 2 mM MgCl2, 40 mM KCl, 5% glycerol, 1 mM DTT, 20 uL, room temperature 30 min, […] (7%/14%) […]
hIRP1 (GST fusion) [5] = target: T1, hIRP1 (GST fusion); experiment: EMSA; 2 mM Mg2+; 5.2 nM RNA; mean of 3 experiments; 10 mM HEPES pH 7.6, 2 mM MgCl2, 40 mM KCl, 5% glycerol, 1 mM DTT, 20 uL, room temperature 30 min, […] (7%/14%) […]

## GACCGUGCACCAUGAGCACGAAUC (structured_RNA) [HCV IRES dIV wild type]
hIRP1 (GST fusion) [1]
  binding result: no binding

## GUUCGUCCUCAGUGCAGGGCAAC (structured_RNA) [eALAS IRE]
hIRP1 (GST fusion) [2]
  binding result: binds

## GUUCGUCCUGCUCCGAGGGCAAC (structured_RNA) [IRE (-) negative control]
hIRP1 (GST fusion) [3]
  binding result: no binding

## GACCGUGCACCGUGAGCACGAAUC (structured_RNA) [ET1]
hIRP1 (GST fusion) [1]
  binding result: no binding

## GACCGUGCCCGUGAGCACGUC (structured_RNA) [ET1+2+3]
hIRP1 (GST fusion) [4]
  Kd: ~0.05 nM

## GACCGUGCCCAUGAGCACGUC (structured_RNA) [ET2+3]
hIRP1 (GST fusion) [5]
  Kd: 54 ± 13 nM
